In the supplement of paper PMC7125110:
± gives the standard error. Fewer inactive variants are shown than the library holds.

B1: glmS ribozyme (parent)
chain: AUAAAAGCGCCAGAACUACAGAAAUGUAGUUGACGAGGAGGAGGUUUAUCGAAUUUUCGGCGGAUGCCUCCAAA

How the values were obtained:
Conditions in all cases: with glucosamine-6-phosphate
glucosamine-6-phosphate [1] = variants of: B1; assay: self-cleavage kobs at 640 uM GlcN6P; higher = faster cleavage; RNA array
Method in brief: (§1)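 Barcoded glmS ribozyme variants on sequenced MiSeq chips were transcribed in situ by E. coli RNA polymerase and tracked through a hybridised Cy3 probe at 37 °C. Glucosamine-6-phosphate (40 μM to 10 mM) in HEPES/KCl/Mg(OAc)2 buffer was flowed in, and tiles were imaged over ~14 h. Signals were normalised to baseline and to non-cleaving reference variants; per-tile medians were fit to one- or two-exponential decays to give kobs. kcat and KM came from weighted Michaelis–Menten fits across concentrations.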

glucosamine-6-phosphate [2] = variants of: B1; assay: self-cleavage kobs at 2500 uM GlcN6P; higher = faster cleavage; RNA array
Method in brief: as §1

glucosamine-6-phosphate [3] = variants of: B1; assay: self-cleavage kobs at 10000 uM GlcN6P; higher = faster cleavage; RNA array
Method in brief: as §1

Variant	self-cleavage kobs at 640 uM GlcN6P (glucosamine-6-phosphate [1]) [s⁻¹]	self-cleavage kobs at 2500 uM GlcN6P (glucosamine-6-phosphate [2]) [s⁻¹]	self-cleavage kobs at 10000 uM GlcN6P (glucosamine-6-phosphate [3]) [s⁻¹]
AUAAAAGCGCGGGAACUACAGAAAUGUAGUUGACGAGGAGGAGGGUAAUCGAAUUUUCGGCGGAUGCCUCGAAA [C11G A12G U45G U47A C71G]	< 1e-05	< 1e-05	
AUAAAAGCGCAAGAACUACAGAAAUGUAGUUGACCAGGAGGAGGUUUAUUGAAUUUUUGGCGGAUGCCUCCAAA [C11A G35C C50U C58U]	< 1e-05	< 1e-05	
AUAAAAGCGCAAGAACUACAGAAAUGUAGUUUACGAGGCGGAGGUUUAUCGAAAUUUCGGCGGAUGGGUCCAAA [C11A G32U A39C U54A C67G C68G]	0.00137 ± 0.00067		
AUAAAAGCGCACGAACUACAGAAAUGUAGUUGACGAGGAGGAGGUUUAUCGAGUUGUCGGCGGAUGCCUCCAAA [C11A A12C A53G U56G]	6.8e-05 ± 1.5e-05	0.000323 ± 6.9e-05	
AUAAAAGCGCAAGAACUACAGAAAUGUAGUUGACGAGGACGAGGUUUAUUGAAUUUUCGGCGGAUGCCUCCAAA [C11A G40C C50U]	< 1e-05	< 1e-05	
AUAAAAGCGCAAUAACUACAGAAAUGUAGUUGACGAGGAGGAGGUUUAUCGAAUUUUAGGCCGAUGCCUCCAAA [C11A G13U C58A G62C]	< 1e-05		
AUAAAAGCGCAACAACUACAGAAAUGUAGUUGACGAGGAGGAGGUUUAUCGAAUUUGCGGCGGAUGCCUCCAAA [C11A G13C U57G]	< 1e-05		
AUAAAAGCGCAAGAGCUACAGAAAUGUAGUUCUCGAGGAGGAGGUUUAUCGAAUUUUCGGCGGAUGCCUCCAAA [C11A A15G G32C A33U]	< 1e-05		
AUAAAAGCGCAAGAAUUACAGAAAUGUAGUUGACGAGGAGGUGGUUUAUCGAAUUUUCGGCGGAUGCCUCCAAA [C11A C16U A42U]	< 1e-05		
AUAAAAGCGCAAGAACUACAGAAAUGUAGUUGACGAGGAGGAGGUUUAUCGAAUUUUCGGUGGAUGCCUCCAAA [C11A C61U]	< 1e-05	< 1e-05	< 1e-05
AUAAAAGCGCAAGAACUACAGAAAUGUAGUUGACGUGGAGGAGGUUCAUCGAAUUUUCGGCGGAUGCCUCCAAA [C11A A36U U47C]	< 1e-05	< 1e-05	
AUAAAAGCGCGAGAACUACAGAAAUGUAGUUGUCGAGGAGGAGGUUUAUCGAAUUUUUGGCGGAUGCCUCCAAA [C11G A33U C58U]	< 1e-05		
AUAAAAGCGCAAGAAGUACAGAAAUGUAGUUGACGAGGAGGAGGUUUAUCGAAUUUAGGGCGGUUGCCUCCAAA [C11A C16G U57A C58G A64U]	< 1e-05	< 1e-05	
AUAAAAGCGCAAGAACUACAGAAAUGUAGUUGACGAGGAGAAGGUUUAGCGAAUUUUCGGCGUAUGCCUCCAAA [C11A G41A U49G G63U]	< 1e-05	< 1e-05	
AUAAAAGCGCAAGAACUACAGAAAUGUAGUUGACGAGGAGGAGGUUUAUUGAAUUUUCCGCGGAUGCCUCCAAA [C11A C50U G59C]	< 1e-05	< 1e-05	
AUAAAAGCGCACGAACUACAGAAAUGUAGUUGACGAGGAGGCGGUUUAUCGAAUUUUCGGCGGAUGCCUCCAAA [C11A A12C A42C]	< 1e-05	< 1e-05	
AUAAAAGCGUCAGAACUACAGAAAUGUAGUUGACGAGGAGGAGUUUUAUCGAAGCUUCGGCGGAUGCCUCCAAA [C10U G44U U54G U55C]	< 1e-05	< 1e-05	
AUAAAAGCGCAAGUGCUACAGAAAUGUAGUUGACCAGGAGGAGGAUUAUCGAAUUUUCGUCGGAUGCCUCCAAA [C11A A14U A15G G35C U45A G60U]	< 1e-05		
AUAAAAGCGUCAGAACUACAGAAAUGUAGUUCACGAGGAGGAGGUUUAUCGAAUUUUCGGCUGAUGCCUCCAAA [C10U G32C G62U]	< 1e-05	< 1e-05	
AUAAAAGCGCAAGAACUACAGAAAUGUAGUUGACGAGGAGGAGGUUUAUCGAAUUUUCGGCGAAUGACCCCAAA [C11A G63A C67A U69C]	< 1e-05		
AUAAAAGCGCAAGAACUACAGAAAUGUAGUUGACGUGGAGGAGGUUUAUCGAAUUUUCGGCGGAUGCCUGCAAA [C11A A36U C70G]	0.000284 ± 7e-05	0.000767 ± 0.00032	
AUAAAAGCGCAUGAAUUACAGAAAUGUAGUUGACGAGGAGGAGGUUUAUCGAAUUUUCGGCGGAUGCCUUCAAA [C11A A12U C16U C70U]	0.00025 ± 7.2e-05	0.000524 ± 0.00013	
AUAAAAGCGCAAGAACUACAGAAAUGUAGUUGCCGAGGGGGAGGGUUAUCGAAUUUUCGGCGGAUGCCUCCAAA [C11A A33C A39G U45G]	< 1e-05	< 1e-05	
AUAAAAGCGUCAGAACUACAGAAAUGUAGUUGACGAGGAGGAGGUAUAUCGAAUUCUCGGCGGAUGCCUCCAAA [C10U U46A U56C]	< 1e-05	< 1e-05	

Variant	self-cleavage kobs at 640 uM GlcN6P (glucosamine-6-phosphate [1]) [s⁻¹]	self-cleavage kobs at 2500 uM GlcN6P (glucosamine-6-phosphate [2]) [s⁻¹]	self-cleavage kobs at 10000 uM GlcN6P (glucosamine-6-phosphate [3]) [s⁻¹]
AUAAAAGCGUCAGAACUACAGAAAUGUAGUAGACGAGGAUGAGGUUUACCGAAUUUUUUGCGGAUGCCUGCAAA [C10U U31A G40U U49C C58U G59U C70G]	< 1e-05		
AUAAAAGCGCAUGAACUACAGAAAUGUAGUUGACGAGGAGGAGGUUAAUCGAAUUUUCGGCGGAUGCCUCCAAA [C11A A12U U47A]	0.000122 ± 2.6e-05		
AUAAAAGCGUCAGAACUACAGAAAUGUAGCUGACGAGGAUGAGGUUUAUCGAAUCUUCGACGGAUGCCUCUAAA [C10U U30C G40U U55C G60A C71U]	< 1e-05		
AUAAAAGCGCAAGAACUACAGAAAUGUAGGUGAUGAGGAGGAGGUUUAUGGAAUUUUCGGCGGAUGCCUCCAAA [C11A U30G C34U C50G]	0.000134 ± 2.8e-05		
AUAAAAGCGUCAGAACUACAGAAAUGUAGUUGACGAGGAGCAGUUUUAUCGAAUCUUUGGCGGAUGCCUCCAAA [C10U G41C G44U U55C C58U]	< 1e-05		
AUAAAAGCGCAAGAACUACAGAAAUGUAGUUGACGAGGAGGAGGUUUAUCUAGUUUUCGGCGGCUGCCACCAAA [C11A G51U A53G A64C U69A]	8.76e-05 ± 3.9e-05		5.47e-05 ± 1.5e-05
AUAAAAGCGCGAGACCUACAGAAAUGUAGGUGACGAGGAGGAGGUUUAUCGUAUUUUCGGCGGAUGCCUCCAAA [C11G A15C U30G A52U]	< 1e-05		
AUAAAAGCGCAAGAACUACAGAAAUGUAGUUGGCGAGGAGGAGGUUUAUCAAAUUUUCGGCGGAUGCCUCUAAA [C11A A33G G51A C71U]	< 1e-05		
AUAAAAGCGCAAGAACUACAGAAAUGUAGUUGACGAGAAGGAUGUUUAUCGAAGUUUCGGCGGAUGCCUCCAAA [C11A G38A G43U U54G]	< 1e-05		
AUAAAAGCGUCAGAACUACAGAAAUGUAGUUGACGAGGAGGAGGUUUAGCGAAUUUUAGGCGGAUGCCUCCAAA [C10U U49G C58A]	< 1e-05		
AUAAAAGCGCGAGAGCUACAGAAAUGUAGUUGACGAGGAGGAGGUUUAUGGAAUUUUCGGCGGAUUCCUCCAAA [C11G A15G C50G G66U]	0.000661 ± 0.00032		
AUAAAAGCGCAAGAACUACAGAAAUGUAGUUGACGAGGAGGAGGUUUAUCGGAUUUUCGGCGGCUGCCUCCAAA [C11A A52G A64C]	< 1e-05	< 1e-05	
AUAAAAGCGCAAGAACUACAGAAAUGUAGUUGACGAGGAGGAGGUUUAUCGAUUUUUCGGCGGAUGCCCCUAAA [C11A A53U U69C C71U]	0.000106 ± 4.9e-05	5.97e-05 ± 2.3e-05	
AUAAAAGCGCGCGAACUACAGAAAUGUAGUUGAGGAGGAGGAGGUUUAUCGAGCUUUCGGCGGAUGCCUCCAAA [C11G A12C C34G A53G U54C]	< 1e-05	< 1e-05	
AUAAAAGCGCGUGAACUACAGAAAUGUAGUUGACGAGGAGGGGGUUUAUCGAAUUUUCGGCGGAUGCCUCCAAA [C11G A12U A42G]	< 1e-05	< 1e-05	
AUAAAAGCGUCAGAACUACAGAAAUGUAGUUGACGAGGAGGAGGUUUAUCGAAUUUCCGGCGGAUGCCUCCAAA [C10U U57C]	< 1e-05		< 1e-05
AUAAAAGCGCAAGAACUACAGAAAUGUAGUUGACGAGGAGGAGGUUUAUCGAAUUUUCUGCGGAUGCCUGUAAA [C11A G59U C70G C71U]	0.000202 ± 5.2e-05	0.00032 ± 6.5e-05	0.00015 ± 4.4e-05
AUAAAAGCGCAAGAACUACAGAAAUGUAGUUGACGAGGAGGAGGUUUAUCGAAUUUUUUGCUGAUGCCUUCAAA [C11A C58U G59U G62U C70U]	< 1e-05		
AUAAAAGCGUCAGAACUACAGAAAUGUAGUUGACGAGGAGGAAGUUUAUAGAAUUUUCGGCGGAUGCCUCCAAA [C10U G43A C50A]	< 1e-05		
AUAAAAGCGUCAGAACUACAGAAAUGUAGUUGACGACGGGCAGGUUUUUCGAAUUUUCGGCUGAAGCCUCCAAA [C10U G37C A39G G41C A48U G62U U65A]	< 1e-05	< 1e-05	
AUAAAAGCGCAAGAACUACAGAAAUGUAGUCGACGAGGAGGCGGUUUAUCGAAUUUUCGGCGGAUGCCUCCAAA [C11A U31C A42C]	< 1e-05		
AUAAAAGCGCAAGAACUACAGAAAUGUAGUUGACUAGGAGGAGGUUUAUCGAAUUUUCGGCGGAUGCCUCGAAA [C11A G35U C71G]	< 1e-05	< 1e-05	
AUAAAAGCGCAAGAACUACAGAAAUGUAGUUGACGGGGAGGAGGUUUAUAGAAUUUUCGGCGGCUGCAUCCAAA [C11A A36G C50A A64C C68A]	< 1e-05		
